Laboratory results: patent US8895526B2, “Identification of RNAI targets and use of RNAI for rational therapy of chemotherapy-resistant leukemia and other cancers” (Cold Spring Harbor Laboratory, priority 2009, dated 2014)

B1: Myo7a.618: shRNA, SEQ ID NO: 149 (nucleic acid)
chain: TGCTGTTGACAGTGAGCGCCCGCCAGTACACCAACAAGAATAGTGAAGCCACAGATGTATTCTTGTTGGTGTACTGGCGGATGCCTACTGCCTCGGA
B2: Dio2.2087: shRNA, SEQ ID NO: 112 (nucleic acid)
chain: TGCTGTTGACAGTGAGCGCCAGGAATTTGGTTAAATGGAATAGTGAAGCCACAGATGTATTCCATTTAACCAAATTCCTGTTGCCTACTGCCTCGGA
B3: Fpr1.375: shRNA, SEQ ID NO: 124 (nucleic acid)
chain: TGCTGTTGACAGTGAGCGATTGGTTCATGTGCAAATTCATTAGTGAAGCCACAGATGTAATGAATTTGCACATGAACCAACTGCCTACTGCCTCGGA
B4: Trpm4.2813: shRNA, SEQ ID NO: 188 (nucleic acid)
chain: TGCTGTTGACAGTGAGCGACAAGATTGTCATAGTGAGCAATAGTGAAGCCACAGATGTATTGCTCACTATGACAATCTTGGTGCCTACTGCCTCGGA
B5: Aspa.996: shRNA, SEQ ID NO: 92 (nucleic acid)
chain: TGCTGTTGACAGTGAGCGCATGAAGCTGCATATTATGAAATAGTGAAGCCACAGATGTATTTCATAATATGCAGCTTCATTTGCCTACTGCCTCGGA
B6: Casp1.248: shRNA, SEQ ID NO: 100 (nucleic acid)
chain: TGCTGTTGACAGTGAGCGCCAGTGAGTATAGGGACAATAATAGTGAAGCCACAGATGTATTATTGTCCCTATACTCACTGATGCCTACTGCCTCGGA
B7: S100a9.148: shRNA, SEQ ID NO: 177 (nucleic acid)
chain: TGCTGTTGACAGTGAGCGCCAGACAAATGGTGGAAGCACATAGTGAAGCCACAGATGTATGTGCTTCCACCATTTGTCTGATGCCTACTGCCTCGGA
B8: Pde1b.2027: shRNA, SEQ ID NO: 162 (nucleic acid)
chain: TGCTGTTGACAGTGAGCGCTGCCTCCAAGTTTCTAAGCAATAGTGAAGCCACAGATGTATTGCTTAGAAACTTGGAGGCAATGCCTACTGCCTCGGA
B9: Wnt10b.1717: shRNA, SEQ ID NO: 190 (nucleic acid)
chain: TGCTGTTGACAGTGAGCGCCTCGAATAGACTAAGATGAAATAGTGAAGCCACAGATGTATTTCATCTTAGTCTATTCGAGTTGCCTACTGCCTCGGA
B10: Pdgfrb.1028: shRNA, SEQ ID NO: 163 (nucleic acid)
chain: TGCTGTTGACAGTGAGCGAAACGACCATGGCGATGAGAAATAGTGAAGCCACAGATGTATTTCTCATCGCCATGGTCGTTCTGCCTACTGCCTCGGA
B11: Centd3.3993: shRNA, SEQ ID NO: 107 (nucleic acid)
chain: TGCTGTTGACAGTGAGCGCCTGGACCACAAGCATCCTTAATAGTGAAGCCACAGATGTATTAAGGATGCTTGTGGTCCAGTTGCCTACTGCCTCGGA
B12: Rbks.337: shRNA, SEQ ID NO: 172 (nucleic acid)
chain: TGCTGTTGACAGTGAGCGAAGCCTCCATAATTGTCAATAATAGTGAAGCCACAGATGTATTATTGACAATTATGGAGGCTGTGCCTACTGCCTCGGA
B13: Cdc42ep1.317: shRNA, SEQ ID NO: 103 (nucleic acid)
chain: TGCTGTTGACAGTGAGCGCCTAGCAGTTGTAAGCAATCAATAGTGAAGCCACAGATGTATTGATTGCTTACAACTGCTAGTTGCCTACTGCCTCGGA
B14: Nmur1.7: shRNA, SEQ ID NO: 152 (nucleic acid)
chain: TGCTGTTGACAGTGAGCGCCTGCAATATCAGTGAGTTCAATAGTGAAGCCACAGATGTATTGAACTCACTGATATTGCAGATGCCTACTGCCTCGGA
B15: Pgam1.1811: shRNA, SEQ ID NO: 164 (nucleic acid)
chain: TGCTGTTGACAGTGAGCGCAAGGAGTGATGTGCAATACTTTAGTGAAGCCACAGATGTAAAGTATTGCACATCACTCCTTTTGCCTACTGCCTCGGA
B16: EG408196.85: shRNA, SEQ ID NO: 116 (nucleic acid)
chain: TGCTGTTGACAGTGAGCGCAGCGAGAACCAGTGAGAAATATAGTGAAGCCACAGATGTATATTTCTCACTGGTTCTCGCTTTGCCTACTGCCTCGGA
B17: Lima1.3235: shRNA, SEQ ID NO: 138 (nucleic acid)
chain: TGCTGTTGACAGTGAGCGAACGGACATTGTACCCAGATAATAGTGAAGCCACAGATGTATTATCTGGGTACAATGTCCGTCTGCCTACTGCCTCGGA
B18: Htatip2.575: shRNA, SEQ ID NO: 133 (nucleic acid)
chain: TGCTGTTGACAGTGAGCGACAGCAGTTTCTTATACCTACATAGTGAAGCCACAGATGTATGTAGGTATAAGAAACTGCTGGTGCCTACTGCCTCGGA
B19: Ctbs.796: shRNA, SEQ ID NO: 110 (nucleic acid)
chain: TGCTGTTGACAGTGAGCGCCCCACAGAGCATCTCACTAAATAGTGAAGCCACAGATGTATTTAGTGAGATGCTCTGTGGGTTGCCTACTGCCTCGGA
B20: Nrp1.2022: shRNA, SEQ ID NO: 154 (nucleic acid)
chain: TGCTGTTGACAGTGAGCGACACAAGGTTCATCAGGATCTATAGTGAAGCCACAGATGTATAGATCCTGATGAACCTTGTGGTGCCTACTGCCTCGGA
B21: Klrb1b.845: shRNA, SEQ ID NO: 136 (nucleic acid)
chain: TGCTGTTGACAGTGAGCGCCAGATTCTTCATTGTATAAATTAGTGAAGCCACAGATGTAATTTATACAATGAAGAATCTGTTGCCTACTGCCTCGGA
B22: Rgs6.896: shRNA, SEQ ID NO: 173 (nucleic acid)
chain: TGCTGTTGACAGTGAGCGCCAAGTGAAGATTGACCGGAAATAGTGAAGCCACAGATGTATTTCCGGTCAATCTTCACTTGTTGCCTACTGCCTCGGA

Test system: tet-on competent MLL/AF9+Nras AML
Experiment: Pooled negative selection RNAi screening (deep sequencing)
Type: cell-based, mouse
Conditions: deep sequencing reads, On Dox compared to T0
Excerpt: (§1) In addition to the analysis of single shRNAs for inhibitory effects in vitro and in vivo, the combination of tet-on competent cancer models and tet-regulatable shRNA expression vectors allowing for monitoring shRNA expression through fluorescent and other reporter genes (e.g. TRMPV and derivates) facilitates pooled shRNA negative selection screening (FIG. 37). In such approaches a pool of over 1,000 shRNAs are retrovirally transduced into tet-on competent cancer models (here MLL/AF9+Nras AML) and selected for shRNA containing cells by either drug selection (e.g. G418) or fluorescence-activated cell sorting (FACS). Selected cell populations harboring a library of shRNAs then can be cultured in the absence or presence of doxycyline (off dox and on dox, respectively) or injected into syngeneic recipient mice that are either treated with doxycyline or left untreated.
(§2) The representation of each shRNA within the pool can be effectively assessed by deep sequencing of shRNA cassettes in a given cell population. For this, genomic DNA is extracted from leukemia cells containing the shRNA pool, and the shRNA guide or passenger strand (21-22 target gene specific nucleotides of the shRNA) by PCR using primers specific for common sequences flanking the gene specific part of the shRNA (e.g. miR30 19 nt loop and miR30 common 3′ sequence). The primers also contain 5′-adapters required for deep sequencing (e.g. for Illumina/Solexa sequencing primers are p5+mir3: 5′-[…]-3′ (SEQ ID NO: 215) and p7+Loop: 5′-[…]-3′ (SEQ ID NO: 216)). Deep sequencing is subsequently performed using a primer binding the flanking nucleotide sequence next to the target gene specific part of the shRNA (for Illumina/Solexa platforms the primer is mir30EcoR1Seq: 5′-TAGCCCCTTGAATTCCGA GGCAGTAGGCA-3′ (SEQ ID NO: 217)).
(§3) The use of shRNA vectors that allow for monitoring of shRNA expression through fluorescent and other reporter genes (e.g. TRMPV) in combination with tet-on competent mouse models facilitates the isolation of pure shRNA expressing cell populations (e.g. by FACS, for TRMPV by sorting of Venus/dsRed double positive cells (FIG. 38). This selection of shRNA expressing cells prior to DNA isolation strongly reduces the background caused by cell populations with insufficient shRNA induction, which are predicted to contain genomic representation of the whole shRNA library without shRNA specific shifts in representation. The final readout is based on the comparison of shRNA representation (i.e. deep sequencing read numbers) before the assay (t0) or from cell populations left without doxycycline treatment (off dox) to those where shRNA were induced and cells subsequently sorted for shRNA expressing cells (on dox). shRNA with inhibitory effects are predicted to loose representation (show less reads) on dox compared to t0 and off dox.
(§4) This pooled is RNAi screening strategy can be applied to rapidly survey inhibitory effects of large pools of shRNAs (˜1000 at a time) in different tet-on competent cancer models and normal control cells (FIG. 39). For example, a pool of 1166 shRNAs targeting 836 predominantly druggable genes associated with MLL fusion proteins in human leukemia and mouse models of MLL/AF9-induced AML (MLL cure library) was analyzed in pooled negative selection screening in tet-on competent MLL/AF9+Nras AML and immortalized murine embryonic fibroblasts (Mef) in parallel. To establish and validate this screening approach, the pool also contained 64 control shRNAs each of which have been previously analyzed for inhibitory effects in both AML cells and Mefs using the same experimental system (FIG. 40).
(§5) After pooling of 1166 experimental and 64 control shRNAs the presence of shRNAs was verified by deep sequencing of shRNAs within the plasmid vector pool (FIG. 41). […]

Compared with B1, B2 is higher in “Fold depletion in AML” value: 14.79 Fold for the first, 20.52 Fold for the second.

First: B3
Second: B4
The “Fold depletion in AML” value of the first is lower: 9.66 Fold for the first, 20.52 Fold for the second.

Compared with B5, B6 is higher in “Fold depletion in AML” value: 13.25 Fold for the first, 16.16 Fold for the second.

Going from B7 to B8, the “Fold depletion in AML” value rises from 13.18 Fold to 15.12 Fold.

Compared with B9, B10 is higher in “Fold depletion in AML” value: 15.69 Fold for the first, 16.16 Fold for the second.

Going from B11 to B12, the “Fold depletion in AML” value rises from 13.37 Fold to 17.02 Fold.

Going from B13 to B14, the “Fold depletion in AML” value rises from 14.91 Fold to 19.45 Fold.

Going from B15 to B16, the “Fold depletion in AML” value rises from 20.18 Fold to 20.79 Fold.

First: B17
Second: B18
The “Fold depletion in AML” value of the first is higher: 16.44 Fold for the first, 15.74 Fold for the second.

First: B19
Second: B20
The “Fold depletion in AML” value of the first is higher: 19.44 Fold for the first, 13.60 Fold for the second.

First: B21
Second: B22
The “Fold depletion in AML” value of the first is lower: 9.74 Fold for the first, 14.33 Fold for the second.

Test system: immortalized murine embryonic fibroblasts (Mef)
Experiment: as above
Type: cell-based
Conditions: deep sequencing reads, on dox compared to initial representation
Excerpt: as §1, §2, §3, §4, §5

Compared with B1, B2 is lower in “Fold depletion in Mef” value: 4.42 Fold for the first, 2.52 Fold for the second.

First: B3
Second: B4
The “Fold depletion in Mef” value of the first is higher: 3.07 Fold for the first, 2.33 Fold for the second.

Compared with B5, B6 is higher in “Fold depletion in Mef” value: 0.68 Fold for the first, 3.84 Fold for the second.

First: B7
Second: B8
The “Fold depletion in Mef” value of the first is higher: 2.68 Fold for the first, 1.31 Fold for the second.

Going from B9 to B10, the “Fold depletion in Mef” value rises from 1.35 Fold to 2.15 Fold.

Going from B11 to B12, the “Fold depletion in Mef” value falls from 1.77 Fold to 1.07 Fold.

Compared with B13, B14 is higher in “Fold depletion in Mef” value: 1.47 Fold for the first, 2.58 Fold for the second.

Compared with B15, B16 is higher in “Fold depletion in Mef” value: 0.17 Fold for the first, 0.25 Fold for the second.

Compared with B17, B18 is higher in “Fold depletion in Mef” value: 0.56 Fold for the first, 1.08 Fold for the second.

Going from B19 to B20, the “Fold depletion in Mef” value rises from 0.19 Fold to 1.80 Fold.

Going from B21 to B22, the “Fold depletion in Mef” value rises from 0.43 Fold to 1.99 Fold.
